B1: CPEB3 Ribozyme (parent)
chain: GGGGGCCACAGCAGAAGCGUUCACGUCGCGGCCCCUGUCAGAUUCUGGUGAAUCUGCGAAUUCUGCUGU

Variants of: B1
Assay: self-cleavage, relative activity (ratio to wild type); higher = more cleavage; co-transcriptional
G3U U20C gave a self-cleavage of 0.0468. With G2C A59G the self-cleavage was 0.106. G3A A60G gave a self-cleavage of 0.32. In the case of G3A A60C, the self-cleavage is reported as 0.152. Work on G3A G30U yielded a self-cleavage of 0.107. Variant G2U C18U has a self-cleavage of 0.0941. In the case of G2U C18A, the self-cleavage is reported as 0.0495. Work on G3C G58C yielded a self-cleavage of 0.0803. G3C C39A showed a self-cleavage of 0.0598. In the case of G3U C63G, the self-cleavage is reported as 0.1. In the case of G3U C63A, the self-cleavage is reported as 0.0888. For G3C C29A, the self-cleavage was 0.0865. G3C C29U showed a self-cleavage of 0.0376. Variant G2U A10G has a self-cleavage of 0.116. With G2U A10U the self-cleavage was 0.138. G3A G25C showed a self-cleavage of 0.0661. For G3A G25A, the self-cleavage was 0.0615. For G2C U43G, the self-cleavage was 0.0524. For G3U C27A, the self-cleavage was 0.0666. G3U C9A gave a self-cleavage of 0.655. Variant G3U C9U has a self-cleavage of 0.521. Work on G3U G47A yielded a self-cleavage of 0.192. In the case of G2U A59G, the self-cleavage is reported as 0.0714. G3U G68C gave a self-cleavage of 0.548. G3U G68U gave a self-cleavage of 0.546. Work on G2U C27A yielded a self-cleavage of 0.0514. With G3U C6A the self-cleavage was 0.0458. Work on G2U G4A yielded a self-cleavage of 0.0959. G2C C12A showed a self-cleavage of 0.0486. G3A A51G showed a self-cleavage of 0.584. Work on G3A C33A yielded a self-cleavage of 0.193. In the case of G3C G68U, the self-cleavage is reported as 0.374. G3A U49C gave a self-cleavage of 0.705. G2C C22G gave a self-cleavage of 0.02. In the case of G2U C66A, the self-cleavage is reported as 0.073. G2U C66U showed a self-cleavage of 0.096. With G3C C34A the self-cleavage was 0.465. For G3C C34U, the self-cleavage was 0.45. With G3A A40C the self-cleavage was 0.166. Variant G3A A40U has a self-cleavage of 0.379. Variant G3C A60U has a self-cleavage of 0.0697. With G3C C66U the self-cleavage was 0.127. In the case of G2C C7G, the self-cleavage is reported as 0.0326. Work on G3U A23C yielded a self-cleavage of 0.135. Variant G3U A23U has a self-cleavage of 0.344. With G2U U38C the self-cleavage was 0.095. In the case of G2U U38A, the self-cleavage is reported as 0.0631. Work on G3C U69A yielded a self-cleavage of 0.209. For G3A G50U, the self-cleavage was 0.582. Work on G3A G50C yielded a self-cleavage of 0.595. G2C G17U showed a self-cleavage of 0.0711. For G2U U61G, the self-cleavage was 0.112. Work on G2U U61A yielded a self-cleavage of 0.0837. Variant G2C G58A has a self-cleavage of 0.0591. G3U G31C showed a self-cleavage of 0.0621. For G2U G48C, the self-cleavage was 0.0769. G2C G14U showed a self-cleavage of 0.0531. G3U G11U gave a self-cleavage of 0.0744. G3U G11A gave a self-cleavage of 0.125. Variant G3A U43A has a self-cleavage of 0.356. With G3A U43G the self-cleavage was 0.422. G3A U43C gave a self-cleavage of 0.41. Work on G2U C29U yielded a self-cleavage of 0.0589. With G2U C63A the self-cleavage was 0.127. G2U C63G gave a self-cleavage of 0.102. For G2U C63U, the self-cleavage was 0.117. For G3C C27A, the self-cleavage was 0.0183. For G3A C6U, the self-cleavage was 0.245. Work on G3A C6G yielded a self-cleavage of 0.0163. Work on G3A C6A yielded a self-cleavage of 0.0773. With G3A G37C the self-cleavage was 0.126. Variant G2U G28U has a self-cleavage of 0.0242. Work on G3A U38C yielded a self-cleavage of 0.419. Work on G3A U38A yielded a self-cleavage of 0.514. For G3U G5U, the self-cleavage was 0.0488. For G3C U62A, the self-cleavage was 0.0658. Variant G2U C54A has a self-cleavage of 0.0587. G2U U26C showed a self-cleavage of 0.077. G2U U26A gave a self-cleavage of 0.0542. With G3A G56C the self-cleavage was 0.253. With G3C G65A the self-cleavage was 0.117. For G3A C7G, the self-cleavage was 0.112. Work on G3A C7A yielded a self-cleavage of 0.0813. G3C A59U gave a self-cleavage of 0.0529. Work on G3C U26A yielded a self-cleavage of 0.0495. G3U G58U showed a self-cleavage of 0.189. For G3C A42G, the self-cleavage was 0.106. For G2C A23U, the self-cleavage was 0.1. G2C A23G showed a self-cleavage of 0.0311. Work on G2U U64C yielded a self-cleavage of 0.0967. In the case of G2U U64G, the self-cleavage is reported as 0.0605. With G2U A40G the self-cleavage was 0.0279. Work on G2C U69G yielded a self-cleavage of 0.0519. Variant G3U A10G has a self-cleavage of 0.158. For G2C G19A, the self-cleavage was 0.0455. Work on G3A C45A yielded a self-cleavage of 0.544. G3A C45G showed a self-cleavage of 0.536. In the case of G2C C24U, the self-cleavage is reported as 0.0323. For G2U A52U, the self-cleavage was 0.0917. G2U A52G showed a self-cleavage of 0.0867. For G2A U49A, the self-cleavage was 0.179. Work on G3A A59C yielded a self-cleavage of 0.199. G3A G14A showed a self-cleavage of 0.329. G3A G14U showed a self-cleavage of 0.29. G2C C34G gave a self-cleavage of 0.0583. For G2U C32A, the self-cleavage was 0.107. G3U C7G gave a self-cleavage of 0.0286. Variant G3C U64G has a self-cleavage of 0.0913. In the case of G2C A8G, the self-cleavage is reported as 0.0226. Work on G3U U53G yielded a self-cleavage of 0.0759. For G2U U46G, the self-cleavage was 0.0727. For G2U A13G, the self-cleavage was 0.0748. For G3C A15U, the self-cleavage was 0.0699. For G2C A51U, the self-cleavage was 0.056. With G3A A16G the self-cleavage was 0.315. With G2U U21C the self-cleavage was 0.0789. With G3U U55G the self-cleavage was 0.0975. For G3U U55A, the self-cleavage was 0.0915. With G3C A51U the self-cleavage was 0.115. G3C G28U showed a self-cleavage of 0.0508. G2A U69C showed a self-cleavage of 0.457. With G2C G48A the self-cleavage was 0.0788. Work on G3A G31U yielded a self-cleavage of 0.154. G2A U61A gave a self-cleavage of 0.0537. For G2A U61G, the self-cleavage was 0.0696. G3A C63U showed a self-cleavage of 0.627. For G3A G65C, the self-cleavage was 0.338. Variant G3C U49A has a self-cleavage of 0.168. With G2U A60G the self-cleavage was 0.0636. Work on G3C U20C yielded a self-cleavage of 0. Variant G3A U55A has a self-cleavage of 0.395. Variant G4A has a self-cleavage of 0.898. For G3U U46A, the self-cleavage was 0.162. With G2C C54G the self-cleavage was 0.0261. G3U G25U gave a self-cleavage of 0.0356. Work on G3U G25A yielded a self-cleavage of 0.046. Work on G2U A51C yielded a self-cleavage of 0.102. With G2C G47U the self-cleavage was 0.0378. For G2C G47A, the self-cleavage was 0.0652. Work on G2C G30C yielded a self-cleavage of 0.072. For G2C C35U, the self-cleavage was 0.0408. With G3C C33G the self-cleavage was 0.0238. Variant G2U U20A has a self-cleavage of 0.0261. For G3A C27A, the self-cleavage was 0.153. Work on G3A C27U yielded a self-cleavage of 0.0889. For G3A C27G, the self-cleavage was 0.056. In the case of G3C C32U, the self-cleavage is reported as 0.0592. With G3C C32G the self-cleavage was 0.0514. In the case of G3U U43G, the self-cleavage is reported as 0.0687. In the case of G2C U36G, the self-cleavage is reported as 0.052. Work on G2C U36A yielded a self-cleavage of 0.0481. Variant G3U U36A has a self-cleavage of 0.0376. Variant G2U C35U has a self-cleavage of 0.0749. Variant G2U C35G has a self-cleavage of 0.109. Variant G3U C45A has a self-cleavage of 0.105. With G3U C45G the self-cleavage was 0.112. Work on G3C G50C yielded a self-cleavage of 0.0988. G3C G50U showed a self-cleavage of 0.133. G3C C35A showed a self-cleavage of 0.0343. G3C C35G gave a self-cleavage of 0.0557. In the case of G3C C9U, the self-cleavage is reported as 0.441. In the case of G2C C29A, the self-cleavage is reported as 0.0311. With G3A U67A the self-cleavage was 0.778. Variant G3U A51G has a self-cleavage of 0.0734. G3C G31A gave a self-cleavage of 0.0559. Work on G3C G31U yielded a self-cleavage of 0.048. In the case of G3C U38C, the self-cleavage is reported as 0.0718.
